Substrate in the data set: NC(=O)c1ccc[n+]([C@@H]2O[C@H](COP(=O)(O)OP(=O)(O)OC[C@H]3O[C@@H](n4cnc5c(N)ncnc54)[C@H](O)[C@@H]3O)[C@@H](O)[C@H]2O)c1
The experiment in a line: steady-state kinetics, soluble enzyme and soluble NAD+. In kind it is biochemical, [Candida] boidinii. To be noted: free enzyme; co-substrate formate.

The text below walks through data of paper PMC5299495, “Co‐immobilized Phosphorylated Cofactors and Enzymes as Self‐Sufficient Heterogeneous Biocatalysts for Chemical Processes” (Angewandte Chemie (International Ed. in English), 2016).

B1: Cb‐FDH ([Candida] boidinii) (protein)
chain: MKIVLVLYDAGKHAADEEKLYGCTENKLGIANWLKDQGHELITTSDKEGETSELDKHIPDADIIITTPFHPAYITKERLDKAKNLKLVVVAGVGSDHIDLDYINQTGKKISVLEVTGSNVVSVAEHVVMTMLVLVRNFVPAHEQIINHDWEVAAIAKDAYDIEGKTIATIGAGRIGYRVLERLLPFNPKELLYYDYQALPKEAEEKVGARRVENIEELVAQADIVTVNAPLHAGTKGLINKELLSKFKKGAWLVNTARGAICVAEDVAAALESGQLRGYGGDVWFPQPAPKDHPWRDMRNKYGAGNAMTPHYSGTTLDAQTRYAEGTKNILESFFTGKFDYRPQDIILLNGEYVTKAYGKHDKK
notes: free soluble enzyme
With B1, the Km was found to be 85 ± 0.9 µM.

As a reminder, the Km is the substrate concentration at which the rate is half of its maximum.
